From the supplement of paper PMC12042874 come the findings set out here.

± gives the uncertainty stated by the source.

The series can be described thus: amyloid nucleation score (Sup35N fusion, yeast selection) (log enrichment); library NNK1; higher = more nucleation; inactive = no reads after selection. The essentials: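 The nucleation score equals the log enrichment of output over input reads from DiMSum, centred on the mode score of non-aggregating sequences. It was computed only for sequences with 100 or more input reads. The reads came from Illumina sequencing of plasmid inserts from psi-negative yeast expressing Sup35N fused to peptides of 20 random codons, induced with 100 μM copper sulfate for 24 hours and grown 7 days at 30°C without adenine and uracil.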

CNPEGYRAHVLCFLNFA registered an amyloid nucleation score of 3.63 ± 0.092.
In the case of KLMSEFTKFVFSLLSSNKSH it was -0.457 ± 0.31; in that of NDHDGEFDD, 0.239 ± 0.57; in that of KLWPSMSFLNCLWCIRERQL, 4.48 ± 0.081.
Under PSKPLGIIRLVSNQFPPSHK stands 0.123 ± 0.29; under YSRLRVCTNSAMLELGFS, 1.03 ± 0.26.
Under MTFVMHIAWG stands 1.55 ± 0.26; under LKTGGSPNLVANYMYDRCAG, 0.581 ± 0.38.
PRVIELARLVRLRKTKVYML: the amyloid nucleation score is -0.013 ± 0.24.
In the case of RSPHVAGYNMKAGSDRSNIT it was 0.052 ± 0.26; in that of VPHLNGCISFWNVSVGYKVP, 5.44 ± 0.077; in that of GNNRCDVIIMVFFK, 1.7 ± 0.12.
Under AINLRLV stands 0.23 ± 0.36; under CSSDFYYLAELNLPFN, 0.917 ± 0.43; under NRSLKCICRRSVGRRSQNLR, 0.57 ± 0.5.
Under MLVRG stands -0.351 ± 0.49; under LGGFSMRVNEVVLPGVRFGD, -0.037 ± 1.7; under EDRYGIVC, -0.25 ± 0.74.
The substance SLVMGVYRRQCRGNPRAMSK gave an amyloid nucleation score of 1.21 ± 0.44.
In the case of SFLLYGLFAYVSAYIRDICA it was -0.166 ± 0.38; in that of VARHGEGFNW, 0.446 ± 0.64; in that of FKSTPVFKQWRNGGTDGLTG, -0.958 ± 1.5.
On to SFGVSNTSYWTAEKVVGYAT, for which the amyloid nucleation score stood at 0.501 ± 0.7.
Under YALRVSR stands -0.346 ± 0.43.
Under YVILFVIVVGSA stands 0.654 ± 0.84; under GTNWDMLCYIVLTYGVVRAF, -0.116 ± 0.51.
In the case of NFVIFKRFFNFHKNWNGWSR it was 3.8 ± 0.07; in that of YWDKMTLTKNFKWLDLLGVG, “inactive”; in that of LPGFWPFMSDTPLGHQIVA, -1.07 ± 1.6.
FHWVGVSYQLKMRRVKPKGV gave an amyloid nucleation score of -0.441 ± 1.1.
Under FDYPDGDVVVNKFDSDVCYR stands 0.616 ± 0.84; under LSDLDIRKQLVYMRSIRVGT, -0.339 ± 0.94; under SYHSMA, “inactive”.
In the case of VSIRTGGTCHYT it was 0.123 ± 0.28; in that of TLRVVMKWLAHTWFRHTLMR, -0.083 ± 0.42.
Regarding LIWSHVLDGYSCEKPSNRMC, the amyloid nucleation score is -0.662 ± 0.98.
In the case of RALLMTMKFNKMGSFNIESN it was 1.77 ± 0.2; in that of QLAAWSGFN, 0.522 ± 0.28.
Under WEGLQLLGS stands -0.138 ± 0.91.
Under LRAHGAYRYQWEACCHNLG stands -0.138 ± 0.36; under MHTKRTTDNKYGSY, -0.208 ± 0.38.
Substance RLTCFRGLGNIYIELINMVN showed an amyloid nucleation score of -0.376 ± 0.23.
Under HLYLRITTVG stands 1.49 ± 0.76; under SLRLFEFFWLTFGSSQIHLA, -0.032 ± 0.5; under DWLVRGVFPYVGMLDIALTY, 0.356 ± 0.72.
In the case of GLIMYPRGYMCKSIT it was 0.813 ± 0.43; in that of ESLSCKFLCVYCCL, “inactive”.
Under FKPEKRLGATG stands 0.694 ± 0.45; under TALESFRHCLVQSNPGSQVV, -0.217 ± 0.5.
On to NCEFIVWGVSSNFEMVFGLM, for which the amyloid nucleation score is -0.267 ± 0.9.
On to LMFKGEYCWLVIWQGLTWGV, for which the amyloid nucleation score worked out at 0.278 ± 0.52.
In the case of IYRFQWPWDMLMYCWTLMSV it was -0.776 ± 0.93; in that of SWEQMSYASSFISNVGRHKG, 1.34 ± 0.2; in that of LRKWSERGPWP, 0.048 ± 0.46.
Regarding RLVSMEVCCTARLPCPYLLK, the amyloid nucleation score was 2.09 ± 0.25.
In the case of TRGCLRPATSKSGMRPW it was 0.056 ± 0.69; in that of DHITKHFIGV, “inactive”.
In turn, TGKDLRAEHENFVARNHFPM yielded an amyloid nucleation score of -0.954 ± 1.4.
Under ITNCEAEEPDCWPDE stands -0.357 ± 0.35; under SWGTGVIPMVRNSLRECTEL, -0.388 ± 0.98.
In the case of SPVLIDVRGM it was -0.413 ± 0.5; in that of LNISMFHSNSSHTTEEVTHH, 1.32 ± 0.19; in that of AKVRKNYTFLHLSPLGRGFD, 0.321 ± 0.48.
In the case of SYEVFEIISNCLEY, the amyloid nucleation score is -0.321 ± 0.35.
In turn, AIFNTGNMWDTLRRHSGVHV had an amyloid nucleation score of -0.059 ± 1.2.
Under LGYKSGVFLWGFRFHP stands -1.35 ± 2.1; under GVWLVSDRKVADVRSNYCFD, -2.18 ± 2.7.
Take GYTKILMRHSNFCMTK: the amyloid nucleation score amounted to 0.428 ± 0.19.
Under DGARDFRLRMLACSRLSRGI stands 0.053 ± 0.72.
In the case of IGACVMQVNLCQSSGVSSYL it was 5.72 ± 0.062.
Under SFARVWVWSACA stands -0.559 ± 0.49.
Substance EKVILHANCFCITMNRMLYH showed an amyloid nucleation score of -0.015 ± 0.39.
Take GGLPGNRSYRGWSSIFACLR: the amyloid nucleation score amounted to 0.021 ± 0.49.
Under FWVFLTRKLCYSHGRVLALV stands -0.708 ± 1.1; under KQLDINRLTSDMS, “inactive”.
In the case of MNCLTSRILNVLIGSGCN it was 3.33 ± 0.076; in that of QANVDCNVHPVTRML, 0.085 ± 0.46.
Under HLDCGCRTFGLTWYWTKDCV stands -0.143 ± 0.49; under NDNGVMLVLCEGMY, 0.014 ± 0.32; under SEMSLSRDSCLLSIV, 0.141 ± 0.18.
Consider TSTVVFFKFYLTKFWISVPT, for which the amyloid nucleation score was 1.28 ± 0.36.
Under GKFDSGYVKGTVHNEAEFQP stands -0.223 ± 0.31; under FHLVRGCIFITCKYVGRGIV, 1.32 ± 0.57; under IGFML, 1.69 ± 0.32.
Under FLVCLFINVVTPRTYHLWVY stands -0.174 ± 0.49; under HECRWRTVYNQ, 0.786 ± 0.93; under SFNVKVAHGLIRFSPDICYQ, 4.47 ± 0.13.
In the case of LSILSGWNTE it was 0.146 ± 0.32.
The substance MKDVILRTWYLRQGEGWGAS yielded an amyloid nucleation score of 0.026 ± 0.4.
For the substance DVILCAK, the amyloid nucleation score result is “inactive”.
MLTRLHVSLSCHFYLWRSL returned an amyloid nucleation score of 0.838 ± 0.56.
For FGYNILYINQSTWLLNFCQV, the amyloid nucleation score turned out to be 6.56 ± 0.049.
In the case of PWFIYDSLGFNSRCRSHLIK it was -0.069 ± 0.88; in that of ELIHILDLVVTPGRFGRPVN, 2.58 ± 0.36; in that of GTFDSN, 0.045 ± 0.46.
The substance IFGTHFGTCFSGHAEEDTGE had an amyloid nucleation score of 0.724 ± 0.83.
Take YVVNGYSICGFDAEVIVLQL: the amyloid nucleation score was 1.19 ± 0.18.
In the case of MMFAKDSI it was 0.372 ± 0.47; in that of YRICVKSSVQAGRLMFKVTG, -1.61 ± 2.7; in that of YSDPYAKWNDQR, 0.784 ± 0.76.
Under LAVFSNVLLYVEDMSALIRG stands 0.129 ± 0.2; under NQVENTWCMSLRLFSYSHTL, 7.548 ± 0.058.
In the case of LCAARNFSL it was -0.277 ± 0.5.
For the substance YNVLCYFLNRFWMGYWYLLS, the amyloid nucleation score is 1.5 ± 0.5.
